The values that follow come from PMC9649601, “The E262K mutation in Lamin A links nuclear proteostasis imbalance to laminopathy‐associated premature aging” (Aging Cell, 2022).

The series concerns the molecule itself. The series is described as follows: dynamic light scattering + other: atomic force microscopy; purified proteins at 0.1 and 10 uM in aqueous environment; ex situ AFM at 10 uM; self-association (oligomers or aggregates).

B1: second rod domain of lamin A E262K (LMNA^E262K-rod2, residues 226-387) (domain or fragment, human, UniProt P02545 226-387, looked up)
chain: LVEIDNGKQREFESRLADALQELRAQHEDQVEQYKKKLEKTYSAKLDNARQSAERNSNLVGAAHEELQQSRIRIDSLSAQLSQLQKQLAAKEAKLRDLEDSLARERDTSRRLLAEKEREMAEMRARMQQQLDEYQELLDIKLALDMEIHAYRKLLEGEEERL
notes: lamin A (LMNA), human, second rod domain, residues 226-387, with the patient's variant p.Glu262Lys; source: bacterially expressed recombinant, purified
Turning to B1, the binding result is given as “binds”.

B2: second rod domain of lamin A (LMNA-rod2, residues 226-387) (domain or fragment, human, UniProt P02545 226-387, looked up)
chain: LVEIDNGKQREFESRLADALQELRAQHEDQVEQYKKELEKTYSAKLDNARQSAERNSNLVGAAHEELQQSRIRIDSLSAQLSQLQKQLAAKEAKLRDLEDSLARERDTSRRLLAEKEREMAEMRARMQQQLDEYQELLDIKLALDMEIHAYRKLLEGEEERL
notes: lamin A (LMNA), human, second rod domain, residues 226-387; source: bacterially expressed recombinant, purified
For B2, the binding result is “binds”.
